Source: article PMC11094360, “Systematic characterization of gene families and functional analysis of PvRAS3 and PvRAS4 involved in rosmarinic acid biosynthesis in Prunella vulgaris” (Frontiers in Plant Science, 2024)

What was measured:
[1] = system: PvRAS4; assay: UPLC of product formation, nonlinear regression; assay type: biochemical, Prunella vulgaris; conditions: varied acyl donor, 2 mM DHPL; 100 mM Tris-HCl pH 7.0, 2 mM DTT, 4 mM MgCl2, 10% glycerol, 25 °C
From the text: UPLC of product formation, nonlinear regression on PvRAS4

[2] = system: PvRAS4; assay: UPLC of acceptor consumption, nonlinear regression; assay type: biochemical, Prunella vulgaris; conditions: varied acyl acceptor, 2 mM p-coumaroyl-CoA; 100 mM Tris-HCl pH 7.0, 2 mM DTT, 4 mM MgCl2, 10% glycerol, 25 °C
From the text: UPLC of acceptor consumption, nonlinear regression on PvRAS4

[3] = substrate: O=C(O)C(O)Cc1ccc(O)cc1; assay: UPLC of acceptor consumption, nonlinear regression; assay type: biochemical, Prunella vulgaris; conditions: varied acyl acceptor, 2 mM p-coumaroyl-CoA, 100 mM Tris-HCl pH 7.0, 2 mM DTT, 4 mM MgCl2, 10% glycerol, 25 °C
From the text: UPLC of acceptor consumption, nonlinear regression on PvRAS3

[4] = substrate: CC(C)(COP(=O)(O)OP(=O)(O)OC[C@H]1O[C@@H](n2cnc3c(N)ncnc32)[C@H](O)[C@@H]1OP(=O)(O)O)[C@@H](O)C(=O)NCCC(=O)NCCSC(=O)/C=C/c1ccc(O)cc1; assay: UPLC of product formation, nonlinear regression; assay type: biochemical, Prunella vulgaris; conditions: varied acyl donor, 2 mM pHPL, 100 mM Tris-HCl pH 7.0, 2 mM DTT, 4 mM MgCl2, 10% glycerol, 25 °C
[5] = substrate: CC(C)(COP(=O)(O)OP(=O)(O)OC[C@H]1O[C@@H](n2cnc3c(N)ncnc32)[C@H](O)[C@@H]1OP(=O)(O)O)[C@@H](O)C(=O)NCCC(=O)NCCSC(=O)/C=C/c1ccc(O)c(O)c1; assay: UPLC of product formation, nonlinear regression; assay type: biochemical, Prunella vulgaris; conditions: varied acyl donor, 2 mM DHPL, 100 mM Tris-HCl pH 7.0, 2 mM DTT, 4 mM MgCl2, 10% glycerol, 25 °C
[6] = substrate: O=C(O)[C@H](O)Cc1ccc(O)c(O)c1; assay: purified protein; conditions: varied acyl acceptor, 2 mM p-coumaroyl-CoA, 100 mM Tris-HCl pH 7.0, 2 mM DTT, 4 mM MgCl2, 10% glycerol, 25 °C

`CC(C)(COP(=O)(O)OP(=O)(O)OC[C@H]1O[C@@H](n2cnc3c(N)ncnc32)[C@H](O)[C@@H]1OP(=O)(O)O)[C@@H](O)C(=O)NCCC(=O)NCCSC(=O)/C=C/c1ccc(O)cc1` [p-coumaroyl-CoA] was tested, and the Km [1] was 218 ± 10.3 µM.

For `O=C(O)[C@H](O)Cc1ccc(O)c(O)c1` [DHPL], the Km [2] was 227 ± 17.5 µM.

In the case of `O=C(O)C(O)Cc1ccc(O)cc1` (stereo not shown) [pHPL], the Km [2] is reported as 228 ± 16.6 µM.

B1: PvRAS3 (Prunella vulgaris) (protein)
chain: MKIEVKESTMVKPAAETPTGGLWISNLDLLSPANYHTLSVHFYRHDGSDNFFEAAPLKEALSRALVEFYPYAGRLKLNGKRLEIDCNGEGLLLVEAESDGTLEELGDFAPRPDLNLIPKVDYSKGISSYPLMLFQITRFKCGGVGLGVANEHHLSDGVSALHFINTWCHLARGVPAPSPAPVFDRTALSARSPPKVEFTHPEFQPPPTLPTPLEHTDIAYAKLKLSRDQLNALKAKCKSPATANGQENGKPARPYSTFEVLAGHIWRCVCAARGLPAEQETKLHIPFDGRAKLQLPAGFFGNAIFFATPIATCGEVEANSLSYAVRRVGDAIGRLDEEYLRSSVDFLELQDDISKLAQGAHSFRCPNLWVISWVRLPIYEPDFGWGKAVYMGPWAAPFEGKSYLLPNPDNDGSLFVAITLHTQHMDRFQNFFYDI
Work on B1 yielded a Km [3] of 32.1 ± 0.7 µM, a Vmax [3] of 19.4 µmol/min/mg and a kcat [3] of 33.3 ± 2.3 s⁻¹. It also gave a kcat/Km [3] of 1e+06 M⁻¹ s⁻¹, a Km [4] of 30.6 ± 1.2 µM and a Vmax [4] of 18.7 µmol/min/mg. It also gave a kcat [4] of 34.3 ± 2.2 s⁻¹, a kcat/Km [4] of 1.1e+06 M⁻¹ s⁻¹ and a Km [5] of 173.2 ± 9.0 µM. For the same molecule, the Vmax [5] was 9.95 µmol/min/mg, the kcat [5] was 14.1 ± 1 s⁻¹ and the kcat/Km [5] was 80000 M⁻¹ s⁻¹. For the same molecule, the Km [6] was 41.7 ± 1.2 µM, the Vmax [6] was 18.2 µmol/min/mg and the kcat [6] was 30.5 s⁻¹. The kcat/Km [6] was 700000 M⁻¹ s⁻¹.
